According to patent US20190241648A1 (STATEN BIOTECHNOLOGY B V, published 2019):
One block for each binder: values may come before it. Ends that are not written are not given here.

How the values were obtained:
ApoC3 peptide W65V = biological target: T1, ApoC3 peptide W65V (human, cyclic (thioether)); assay: cyclic peptide substitution array
T1 peptide: DKFSEFVDLDPEV
Procedure, shortened: (§1)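 Peptide microarrays incubated with antibody samples, then stained with goat anti-human IgG (Fc) DyLight680 and anti-HA DyLight800 control antibodies, scanned at intensity 7/7 (red/green). Secondary-only pre-stain checked background binding; framing HA peptides served as quality control; substitution effects read as changes in spot intensity.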

ApoC3 peptide L67K = biological target: T2, ApoC3 peptide L67K (human, thioether (positions not given here); not fully specified (bridges); also: thioether between a C-terminal Cys side chain and a modified N-terminus, the Cys is not in the chain); assay: cyclic peptide substitution array
T2 peptide: DKFSEFWDKDPEV
Procedure, shortened: as §1

ApoC3 peptide L67G = biological target: T3, ApoC3 peptide L67G (human, thioether (positions not given here); not fully specified (bridges); also: thioether between a C-terminal Cys side chain and a modified N-terminus, the Cys is not in the chain); assay: cyclic peptide substitution array
T3 peptide: DKFSEFWDGDPEV
Procedure, shortened: as §1

ApoC3 peptide V71D = biological target: T4, ApoC3 peptide V71D (human, thioether (positions not given here); also: cyclic (thioether), ring places not given here); assay: cyclic peptide substitution array
T4 peptide: DKFSEFWDLDPED
Procedure, shortened: as §1

ApoC3 peptide W65Q = biological target: T5, ApoC3 peptide W65Q (human, cyclic (thioether)); assay: cyclic peptide substitution array
T5 peptide: DKFSEFQDLDPEV
Procedure, shortened: as §1

ApoC3 peptide D59T = biological target: T6, ApoC3 peptide D59T (human, thioether (positions not given here); not fully specified (C-terminus, bridges); also: cyclised via thioether between a C-terminal Cys and a modified N-terminus, the Cys and the N-terminal …); assay: cyclic peptide substitution array
T6 peptide: TKFSEFWDLDPEV
Procedure, shortened: as §1

ApoC3 peptide D68N = biological target: T7, ApoC3 peptide D68N (human, cyclic (thioether)); assay: cyclic peptide substitution array
T7 peptide: DKFSEFWDLNPEV
Procedure, shortened: as §1

ApoC3 peptide D59H = biological target: T8, ApoC3 peptide D59H (human, thioether (positions not given here); not fully specified (C-terminus, bridges)); assay: cyclic peptide substitution array
T8 peptide: HKFSEFWDLDPEV
Procedure, shortened: as §1

ApoC3 peptide D59Q = biological target: T9, ApoC3 peptide D59Q (human, thioether (positions not given here); not fully specified (C-terminus, bridges); also: cyclised via thioether between a C-terminal Cys and a modified N-terminus, the Cys and the N-terminal …); assay: cyclic peptide substitution array
T9 peptide: QKFSEFWDLDPEV
Procedure, shortened: as §1

ApoC3 peptide D66H = biological target: T10, ApoC3 peptide D66H (human, not fully specified; cyclic (thioether)); assay: cyclic peptide substitution array
T10 peptide: DKFSEFWHLDPEV
Procedure, shortened: as §1

ApoC3 peptide L67Q = biological target: T11, ApoC3 peptide L67Q (human, thioether (positions not given here); not fully specified (bridges); also: thioether between a C-terminal Cys side chain and a modified N-terminus, the Cys is not in the chain); assay: cyclic peptide substitution array
T11 peptide: DKFSEFWDQDPEV
Procedure, shortened: as §1

ApoC3 peptide D66I = biological target: T12, ApoC3 peptide D66I (human, not fully specified; cyclic (thioether)); assay: cyclic peptide substitution array
T12 peptide: DKFSEFWILDPEV
Procedure, shortened: as §1

ApoC3 peptide P69D = biological target: T13, ApoC3 peptide P69D (human, not fully specified; cyclic (thioether)); assay: cyclic peptide substitution array
T13 peptide: DKFSEFWDLDDEV
Procedure, shortened: as §1

ApoC3 peptide S62W = biological target: T14, ApoC3 peptide S62W (human, thioether (positions not given here); also: cyclic (thioether), ring places not given here); assay: cyclic peptide substitution array
T14 peptide: DKFWEFWDLDPEV
Procedure, shortened: as §1

ApoC3 peptide D68L = biological target: T15, ApoC3 peptide D68L (human, cyclic (thioether)); assay: cyclic peptide substitution array
T15 peptide: DKFSEFWDLLPEV
Procedure, shortened: as §1

ApoC3 peptide L67P = biological target: T16, ApoC3 peptide L67P (human, thioether (positions not given here); not fully specified (bridges); also: thioether between a C-terminal Cys side chain and a modified N-terminus, the Cys is not in the chain); assay: cyclic peptide substitution array
T16 peptide: DKFSEFWDPDPEV
Procedure, shortened: as §1

ApoC3 peptide S62D = biological target: T17, ApoC3 peptide S62D (human, not fully specified; cyclic (thioether)); assay: cyclic peptide substitution array
T17 peptide: DKFDEFWDLDPEV
Procedure, shortened: as §1

ApoC3 peptide S62F [1] = biological target: T18, ApoC3 peptide S62F (human, not fully specified; cyclic (thioether)); assay: cyclic peptide substitution array
T18 peptide: DKFFEFWDLDPEV
Procedure, shortened: as §1

ApoC3 peptide P69A = biological target: T19, ApoC3 peptide P69A (human, thioether (positions not given here); not fully specified (bridges); also: thioether from modified N-terminus to C-terminal Cys (Cys not in chain)); assay: cyclic peptide substitution array
T19 peptide: DKFSEFWDLDAEV
Procedure, shortened: as §1

ApoC3 peptide L67E = biological target: T20, ApoC3 peptide L67E (human, thioether (positions not given here); not fully specified (bridges); also: thioether between a C-terminal Cys side chain and a modified N-terminus, the Cys is not in the chain); assay: peptide microarray
T20 peptide: DKFSEFWDEDPEV

ApoC3 peptide E63C = biological target: T21, ApoC3 peptide E63C (human, not fully specified; cyclic (thioether)); assay: peptide microarray
T21 peptide: DKFSCFWDLDPEV

ApoC3 peptide E63Y = biological target: T22, ApoC3 peptide E63Y (human, cyclic (thioether)); assay: peptide microarray
T22 peptide: DKFSYFWDLDPEV

ApoC3 peptide S62F [2] = biological target: T18, ApoC3 peptide S62F; assay: peptide microarray
ApoC3 peptide L67A = biological target: T23, ApoC3 peptide L67A (human, not fully specified; cyclic (thioether)); assay: peptide microarray
T23 peptide: DKFSEFWDADPEV

[3] = biological target: T24, ApoC3 peptide … D45T (human); assay: peptide microarray
T24 sequence (peptide, cyclic constrained): ARGWVTTGFSSLK

[4] = biological target: T25, ApoC3 peptide … V43W (human); assay: peptide microarray
T25 sequence (peptide, cyclic constrained): ARGWWTDGFSSLK

[5] = biological target: T26, ApoC3 peptide … V43T (human); assay: peptide microarray
T26 sequence (peptide, cyclic constrained): ARGWTTDGFSSLK

[6] = biological target: T27, ApoC3 peptide … G41T (human); assay: peptide microarray
T27 sequence (peptide, cyclic constrained): ARTWVTDGFSSLK

[7] = biological target: T28, ApoC3 peptide … G41P (human); assay: peptide microarray
T28 sequence (peptide, cyclic constrained): ARPWVTDGFSSLK

[8] = biological target: T29, ApoC3 peptide … V43Q (human); assay: peptide microarray
T29 sequence (peptide, cyclic constrained): ARGWQTDGFSSLK

[9] = biological target: T30, ApoC3 peptide … G41V (human); assay: peptide microarray
T30 sequence (peptide, cyclic constrained): ARVWVTDGFSSLK

% of binding to wild-type peptide (ApoC3 peptide W65V): 17.9%
% of binding to wild-type peptide (ApoC3 peptide L67K): 45.6%
% of binding to wild-type peptide (ApoC3 peptide L67G): 35.2%
% of binding to wild-type peptide (ApoC3 peptide V71D): 111%
% of binding to wild-type peptide (ApoC3 peptide W65Q): 0%
% of binding to wild-type peptide (ApoC3 peptide D59T): 94.9%
% of binding to wild-type peptide (ApoC3 peptide D68N): 0%
% of binding to wild-type peptide (ApoC3 peptide D59H): 52.8%
% of binding to wild-type peptide (ApoC3 peptide D59Q): 68.3%
% of binding to wild-type peptide (ApoC3 peptide D66H): 0%
% of binding to wild-type peptide (ApoC3 peptide L67Q): 3.99%
% of binding to wild-type peptide (ApoC3 peptide D66I): 0%
% of binding to wild-type peptide (ApoC3 peptide P69D): 21.6%
% of binding to wild-type peptide (ApoC3 peptide S62W): 0%
% of binding to wild-type peptide (ApoC3 peptide D68L): 0%
% of binding to wild-type peptide (ApoC3 peptide L67P): 25.5%
% of binding to wild-type peptide (ApoC3 peptide S62D): 0%
% of binding to wild-type peptide (ApoC3 peptide S62F [1]): 1.25%
% of binding to wild-type peptide (ApoC3 peptide P69A): 25.7%
B1: Llama antibody 5E5 (antibody, V domains shown)
VH: QLQLVESGGGLVQPGGSLRLSCAASGFTFGTYSMRWVRQVPRKALEWVSSISTDGGGTAYRDSVKGRFTISRDNAKNTLYLQMNNLKPEDTAIYYCVIAGYSDWGQGTQVTVSS
VL: ATMLTQSPGSLSVVPGESASISCKTSQGLVHSDGKTYFYWFLQKPGQSPQQLIYQVSNRASGVPDRFTGSGSGTDFTLKISGVKAEDAGVYYCAQGTYYPHTFGSGTRLEIK
notes: detected with goat anti-human IgG (Fc); also called mAb 5E5

% of binding to wild-type peptide (ApoC3 peptide L67E): 8.52%
% of binding to wild-type peptide (ApoC3 peptide E63C): 7.93%
% of binding to wild-type peptide (ApoC3 peptide E63Y): 8.92%
% of binding to wild-type peptide (ApoC3 peptide S62F [2]): 9.54%
% of binding to wild-type peptide (ApoC3 peptide L67A): 9.07%
B2: anti-ApoC3 antibody 6A6 (antibody, V domains shown)
VH: EVQLVESGGGLVQPGGSLRLSCAASGFTFSSYAGRWVRQVPGKGLEWVSSINAGGGSTSYADSVKGRFTISRDNAKNTLYLQMNSLKPEDTAKYYCTQNSYRYWGQGTRVAVSS
VL: DVVLTQTPGSLSVVPGESASISCKASQSLIHTDGKTYLYWLLQKPGQRPQLLIYQVSSHESGVPDRFTGSGSGTDFTLKISGVKAEDAGVYYCAQATYNPRTFGQGTKLEIK
notes: it was detected with goat anti-human IgG (Fc); also called mAb 6A6; llama antibody 6A6

% of binding to wild-type peptide [3]: 8.67%
% of binding to wild-type peptide [4]: 8.98%
% of binding to wild-type peptide [5]: 9.94%
% of binding to wild-type peptide [6]: 9.44%
% of binding to wild-type peptide [7]: 8.7%
% of binding to wild-type peptide [8]: 7.49%
% of binding to wild-type peptide [9]: 8.76%
B3: anti-ApoC3 antibody 14C7 (antibody, V domains shown)
VH: QVQVQESGPGLVKPSQTLSLTCTVSGGSITTNSYYWSWIRQPPGKGLEWMGAIDYSGDTYYSPSLKSRTSISRDTSKNQFTLQLTSVTPEDTAVYYCVSRIPTGEYWGQGTQVTVSS
VL: QTVVTQEPSLSVSPGGTVTLTCGLNSGSVTSSNYPDWYQQTPGQAPRLLIYNTNSRHSGVPSRFSGSISGNKAALTITGAQPEDEADYYCALYMGSDSVVFGGGTHLTVL
notes: it was detected with goat anti-human IgG (Fc); also called mAb 14C7; llama antibody 14C7
